Results as given in article doi:10.1101/2025.08.18.670068, “Computational Design of Soluble CCR8 Analogues with Preserved Antibody Binding” (bioRxiv, 2025).

Target: T1, Wild-type CCR8 used as an assay control (Homo sapiens, UniProt P51685)
T1 construct: C-C chemokine receptor 8 (CCR8), human, wild type; Detergent-solubilised; 0.05% DDM and 0.01% CHS in the SPR running buffer; also called WT-CCR8; wild-type Human CCR8 protein; source: bought: Acro Biosystems (Cat. #CC8-H52D6)
Assay: SPR; Biacore 8K; mAb1 IgG1 captured on Protein A chip (about 400 RU); wild-type CCR8 as analyte; 10 mM HEPES, 150 mM NaCl, 3 mM EDTA, 0.005% Tween-20, pH 7.4, with 0.05% DDM and 0.01% CHS; steady-state affinity fit
Details: both partners purified

B1: mAb1 in full length human IgG1 format (antibody, V domains shown)
VH: QSVEESGGRLVTPGTPLTLTCTVSGFSLSNYAMIWVRQAPGEGLEWVGTISLGGYTYYANWAKGRFTISKTSTTVDLKISSPTTEDTATYFCARARWSTDSAIYTYAFDPWGPGTLVTVSS
VL: AYDMTQTPASVEVAVGGTVTIKCQASQSISSYLSWYQQKPGQRPELLIYKASTLASGVSSRFKGSGSGTQFTLTISDLEAADAATYYCQQGYTSSNIDNIFGGGTEVVVK
notes: VH of mAb1; constant region of human IgG1 heavy chain ('full length human IgG1 format'); light chain of mAb1; IgG1; captured on a Protein A chip for SPR; source: CHO cells, purified by one step Protein A chromatography
Kd: 190 nM
